The results in this text go back to patent US6340783B1, “Rodent models of human amyloidoses” (University of Washington, priority 1992, dated 2002).

Where two headings read alike, the source gives them in different places.

In the experiment the target is T1, BAP (1-28) (Homo sapiens, UniProt P05067).
T1 construct: residues 1-28 of BAP or residues 597-624 of BAPP; purchased Bachem Inc., Torrance, Calif; host or cells: synthetic peptide
The experiment is described as follows: Solid phase binding assay, Scatchard analysis of 125I-BAP (1-28) binding to high Mr HSPG. As for the experimental part:
Nitrocellulose coated wells were incubated overnight at room temperature with 100 μl of TBS containing 1.5 μg (with 0.28 μg binding to the well) of high Mr HSPG. Wells were blocked overnight at room temperature with 200 μl of 5% non-fat dried milk. After blocking, wells were rinsed 3 times with 200 μl of TBS. Various quantities of ^125I-BAP (1-28) (specific activity=6,683 cpm/pm) diluted in 100 μl of TBS/0.05% Tween 20 was added in triplicate to wells and incubated for 2.5 hours at room temperature on an orbital shaker. At the end of the incubation period, free ^125I-BAP was removed from each well and transferred to scintillation vials for counting. In addition, each well was washed 6 times with 200 μl of TBS/0.05% Tween 20, and the wash was added to each of the same scintillation vials described above, to determine the total “free” 125I-BAP fraction for each well. Bound ^125-BAP was extracted from wells by incubation with 100 μl of 1N NaOH at room temperature for 1 hour, and quantitated by liquid scintillation counting. Recovery of ^125I-BAP as free and bound radioactivity exceeded 90%. […] Bars indicate standard error of the mean.
^125I-HSPG (specific activity=1,104 cpm/ug) isolated from EC culture media was used to determine the amount of HSPG which bound to microtiter wells. Polyvinyl microtiter wells were coated with 100 μl of nitrocellulose solution (Schleicher and Schuell) (10 cm^2 of BA85 nitrocellulose in 10 ml of methanol) and allowed to dry at room temperature for 4 hours. Wells were coated overnight at room temperature with unlabeled HSPG to give 0.12 μg or 0.28 μg of bound-HSPG per well, and blocked overnight at room temperature with 200 μl of 5% non-fat dried milk (Carnation Co., Los Angeles, Calif.). Various quantities of 125I-BAP (residues 1-28) (specific activity=6,683 cpm/pm) diluted in 100 μl of TBS/0.05% Tween 20 were added in triplicate to wells and incubated for 2.5 hours at room temperature on an orbital shaker. At the end of the incubation. period, free ^125I-BAP was then removed with 6 washes of TBS/0.05% Tween 20. Bound ^125I-BAP was extracted from wells by incubation with 100 μl of 1N NaOH at room temperature for 1 hour, and “bound” versus “free” radioactivity was quantitated by liquid scintillation counting. Recovery of ^125I-BAP as free and bound radioactivity exceeded 90%. A set of controls using 5% BSA-coated wells was also included in all experiments.
To quantitate the interaction between the high Mr HSPG and BAP (1-28), 0.12 μg or 0.28 μg of the HSPG (isolated from the culture media of ECs; see FIG. 9B, lane 1) were immobilized on nitrocellulose coated wells and incubated with increasing concentrations of ^125I-BAP.

T1 sequence (P05067 672-699 limits assumed): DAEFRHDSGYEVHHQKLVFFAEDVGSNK

With “high Mr HSPG: ˜600-800 kDa heparan sulfate proteoglycan isolated from culture media of bovine aortic endothelial cells”, the Kd reads like this: (125I-BAP (1-28), Scatchard analysis, HSPG on nitrocellulose coated wells, read-out: Kd of the high affinity binding site) 0.083 nM; (125I-BAP (1-28), Scatchard analysis, HSPG on nitrocellulose coated wells, read-out: Kd of the low affinity binding site) 42 nM; (binding to BAP/β/A4 (1-28), read-out: Kd of the low affinity binding site (unit inferred)) 42 nM. For the same substance, the “moles of BAP bound by 1 mole of HSPG” value (assuming molecular weights of 700,000 and 2,800) was approximately 1.8 mol.

A word on the Kd: it is a measure of binding affinity in units of concentration.
